One experiment has as its target T1, GST-tagged TRIB3 (human, UniProt Q96RU7 1-358).
T1 construct: purified recombinant TRIB3; also called TRIB3-GST; TRIB3 protein; source: bought: Sinobiological (10731-H09B), purified
T1 sequence (looked up): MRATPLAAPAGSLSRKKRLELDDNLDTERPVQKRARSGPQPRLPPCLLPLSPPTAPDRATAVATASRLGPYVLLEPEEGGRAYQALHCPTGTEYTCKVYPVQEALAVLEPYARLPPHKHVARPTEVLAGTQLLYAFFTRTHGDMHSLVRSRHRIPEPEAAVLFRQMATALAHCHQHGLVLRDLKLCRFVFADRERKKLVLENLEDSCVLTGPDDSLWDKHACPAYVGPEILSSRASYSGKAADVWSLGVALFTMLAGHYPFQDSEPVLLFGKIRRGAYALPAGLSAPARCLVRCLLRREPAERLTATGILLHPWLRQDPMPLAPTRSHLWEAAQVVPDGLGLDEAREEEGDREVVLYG
Description: SPR; BIAcore T200; TRIB3 immobilised directly on a CM5 chip; 0–200 nM peptide passed over; HBS-EP pH 7.4, 25 °C, 25 μl/min. Particulars: both partners purified.

The target of experiment [1] is T2, UBE3B (His-tagged), recombinant (human, UniProt Q7Z3V4 1-1068).
T2 construct: recombinant UBE3B; also called purified UBE3B; source: Freestyle 293-F cells, transient transfection, purified (Ni-NTA, Superdex 200)
T2 sequence (looked up): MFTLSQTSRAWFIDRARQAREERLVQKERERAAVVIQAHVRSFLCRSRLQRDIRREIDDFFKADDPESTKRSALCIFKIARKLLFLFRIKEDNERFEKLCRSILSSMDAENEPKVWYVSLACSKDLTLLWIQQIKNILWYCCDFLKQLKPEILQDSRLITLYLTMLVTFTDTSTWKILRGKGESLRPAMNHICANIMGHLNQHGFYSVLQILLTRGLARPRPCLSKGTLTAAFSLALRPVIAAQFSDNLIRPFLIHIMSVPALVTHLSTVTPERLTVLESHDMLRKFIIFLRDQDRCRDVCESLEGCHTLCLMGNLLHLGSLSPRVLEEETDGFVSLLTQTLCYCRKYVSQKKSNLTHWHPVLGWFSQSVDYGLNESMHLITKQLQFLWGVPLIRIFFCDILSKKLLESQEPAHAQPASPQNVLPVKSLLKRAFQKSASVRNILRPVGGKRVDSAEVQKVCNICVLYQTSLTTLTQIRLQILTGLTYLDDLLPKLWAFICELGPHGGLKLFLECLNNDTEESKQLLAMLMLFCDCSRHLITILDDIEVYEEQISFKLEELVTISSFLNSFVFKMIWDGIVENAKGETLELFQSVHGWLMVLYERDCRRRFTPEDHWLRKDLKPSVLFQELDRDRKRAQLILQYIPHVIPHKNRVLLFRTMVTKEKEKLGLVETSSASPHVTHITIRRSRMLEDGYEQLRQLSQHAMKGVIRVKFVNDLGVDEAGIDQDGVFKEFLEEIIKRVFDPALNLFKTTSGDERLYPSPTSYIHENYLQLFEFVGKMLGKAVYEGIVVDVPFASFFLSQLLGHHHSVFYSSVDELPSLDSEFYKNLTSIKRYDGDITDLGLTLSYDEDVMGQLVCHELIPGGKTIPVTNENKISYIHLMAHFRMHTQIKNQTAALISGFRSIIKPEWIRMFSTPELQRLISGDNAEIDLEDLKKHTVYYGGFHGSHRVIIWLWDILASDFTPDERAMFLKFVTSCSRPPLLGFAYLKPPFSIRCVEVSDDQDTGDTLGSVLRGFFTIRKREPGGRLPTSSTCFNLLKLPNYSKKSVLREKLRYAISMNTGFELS
Put plainly: co-IP; in vitro co-IP: purified His-tagged UBCH3 (5 μg) and His-tagged UBE3B (5 μg) with GST-tagged TRIB3 or the KD(C) domain; 1% NP-40, 120 mM NaCl, 40 mM tris-HCl pH 7.4, 6 h at 4 °C. To be noted: both partners purified.

Where no end group is shown, it is not given here. [ ]: non-standard residue; d: D form.

B1: CM4 peptide (peptide)
peptide: [dK][dR][dR][dE][dQ][dL][dK][dH][dK][dL][dE][dQ][dL][dR]
notes: α-helical peptide derived from the C terminus of MYC; source: synthetic peptide (Chinese Peptide Inc., >98% purity)
Regarding B1, in the experiment with GST-tagged TRIB3, binding was put at a Kd of 76.4 nM.

B2: purified His-tagged UBCH3 (enzyme, UniProt P49427 1-236, looked up)
chain: MARPLVPSSQKALLLELKGLQEEPVEGFRVTLVDEGDLYNWEVAIFGPPNTYYEGGYFKARLKFPIDYPYSPPAFRFLTKMWHPNIYETGDVCISILHPPVDDPQSGELPSERWNPTQNVRTILLSVISLLNEPNTFSPANVDASVMYRKWKESKGKDREYTDIIRKQVLGTKVDAERDGVKVPTTLAEYCVKTKAPAPDEGSDLFYDDYYEDGEVEEEADSCFGDDEDDSGTEES
notes: UBCH3 (CDC34), purified; also called UBCH3 (E2); UHCH3
On to B2, for which the binding result in experiment [1] is listed as “binds”.

As usually defined, the Kd is a measure of binding affinity in units of concentration. Lower therefore signals higher affinity.

The values above are taken from PMC7725785, “TRIB3 promotes MYC-associated lymphoma development through suppression of UBE3B-mediated MYC degradation” (Nature Communications, 2020).
